# Experimental data as given in the nanobody polyreactivity screen of Harvey et al. (2022).
# Test: yeast display, Sf9 membrane polyspecificity reagent, FACS + sequencing; frameworks hold sequencing errors
# Procedure, shortened: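 Genes from sorted yeast were amplified by colony PCR, read by MiSeq 2 × 250 sequencing and filtered on CDR length. These cells carried a synthetic nanobody library in Saccharomyces cerevisiae BJ5465 and were sorted by FACS into low and high (top ~1%) gates on anti-HA and streptavidin fluorescence. Polyreactivity is labelled according to the gate of origin.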
row,Sequence,polyreactivity (PSR sort gate)
1,QVQHVESGGGLVQAGGSLRLSCAASGSIFNYYDMGWYRQAPGKEREFVARITIGGSSTNYADSVKGRFTISRDNAKNTVYLQMNSLTPEDTAVYYCAAAQYGIFFSQMDYWGQGTQVTVSS,low polyreactivity
2,QVQLVSGGGLVQAGGSLRLSCAASGRIFVSYAMGWYRQAPGKERELVADISSDGSTNYADSVKGRFTISRDNAKNTVYLQMNSLKPEDTAVYYCAVEVVRVYRYDYWGQGTQVTVSS,low polyreactivity
3,QVQLVESGGGLVQAGGSLRLSCASSGRTFYYYAIGWYRQSPGKETELVAVIRSSGDSTYYADSVKGRFTISRDNAKNTVSLQMNSLKPEDNAVYYCAAEAPSRCYSWHPRYYFWGQGTQVTVSS,low polyreactivity
4,QVQLVESGGGLVQAGGSLRLSCAASGSIFTSNVMAWYRQAPGKERELVAAITITGTTTYADSVKGRFTISRDNAKNTVYLQMNSLIPEDTAVYYCAKDPVELSPADWRADYDYWGQGTQVTVSS,low polyreactivity
5,QVQLVESGGGLVQAGGSLRLSCAASGRIFLQNAMGWYRQAPWKERELVASISSSGGTTYYADSVKGRFTISRDNAKNTVYLQMNSLKPEDTAVYYCAADYGHYSTPMDYWGQGTQVTVSS,low polyreactivity
6,QVQLVESGGGLVQAGGSLRLSCAASGRTFERYALGWYRQAPGKERELVAAIDFSGGSTSYADSVKGRFTISRDNAKNTVYLQMNSLKPEDTAVYYCAARETAHGGKEDDYWGQGTQVTVSS,low polyreactivity
7,QVQLVESGGGLVQAGGSHRLSCAASGRIFVGYTMGWYRQAPGKERELVAAITSGGSTYYADSVKGRFTISRDNAKNTVYLQMNSLNPEDTAVYYCNAAYQFDSYHLGGYGYEYWGQGTQVTVSS,low polyreactivity
8,PVQLVESGGGLVQAGGSLRLSCAASGRTFLVYSMGWYRQAPGKERELVAAISNGGSTNYADSVKGRFTISRDNAKKTVYLQMNSLKPEDTALYDCATRIHKWYYYWGQGTQVTVSS,high polyreactivity
9,QVQLVESGGGLVQAGGSLRLSCAASGNTFVYNAMGWYRQAPGKERELVAGLTKTGGRTYYADSVKGRVTISRDNAKNTVYLQMNSLKPEETAVYYCAARPWNDGYYVGRFHMDYWGQGTQVTVSS,low polyreactivity
10,QVQLVESGGGLVQAGGSLRLSCAASGITLYRYAMGCYRQAPGKERELVADISSGGGTTYYADSVKGRFTISRDNAKNTVYLQMNSLKPEDTAVYYCAADYGFRYPLYDYWGQGTQVTVSS,low polyreactivity
11,KVQLVESGGGLVQAGGSLRLSCAASGRIFYSNVMGWYRQATGKERELVAAISGRTGGTYYADSVKGRFTISRDNAKNTVYLQMNSLKPEDTAVYYCAARFIYYYGSGPDDYWGQGTQVTVSS,low polyreactivity
12,QVQLVESGGGLVQAGGSLRLSCAASGNIFYVYAMGWYRQAPGKEREFVAAIRGSGGSTYYADSVKGRFTISRDNAKNTVYLQMNSLIQEDTAVYYCDAVAWEGSGSEMYSWGQGTQVTVSS,low polyreactivity
13,QVQLVESGGGLVQAGGSLRLICAASGITFAVYAMGWYSQAPGKERELVAASSVSGGSTYYADSVKGRFTISRDNAKNTVYLQMNSLKPEATAVYYGAADRYGHFGDWGQGTQVTVSS,high polyreactivity
14,QVQLVESGGGLVQAGGSLRLSCAASGRTSSTYDMGWYRLAPGKERELVADITWYGGSTYYADSVKGRFTISRDNAKNTVYLQMNSLIPEDTAVYYCAAERKDGGYGYGFYWGVVGLDYWGQGTQVTVSS,low polyreactivity
15,KSGGGLVQAGGSLRLSCAASGRIFLEYAMAWYKQAPGKERELFASISWSGDSTYYADSVKGRFTISRDNAKNTVYLQKNSLKPEDTAVYYCNADGQVGNAVSYDYWGQGTQVTVSS,low polyreactivity
16,QVQLVESGGGLVQAGGSLRLSCAASGSIISNYVMGWYRQAPGKERELDAAITRRGGRTYYADSVKGRFTISRDNAKNTVYLQMNSLKPEDTAVYYCAAEGYVYTFWDSTDFDYWGQGTQVTVSS,high polyreactivity
17,QVQLVESGGGLVQAGGSLRLSCAASGSIFYRNAMGWYRQAPGKERELVAAISSDGSTNYADSVTGRFTISRDNAKNTVYLQMNSLKPEDTAVYYCAAPWTQILDYWGQGTQVTVSS,low polyreactivity
18,QVQLVESGGGLVQAGGSLRLSCAASGITFRYYAMGWYRQAPGKERELVSVISKGGTSTYYADSVKGRFTISRDNAKITVYLQMNSLKPEDTAVYYCAAAYFSSGYKYYYWGQGNQVTVSS,high polyreactivity
19,QVQLVESGGGLVQAGGSLRVSSAASGRIFSIYAMGWYRQAPGKERELVAAISFRGTSTYADSVKGRFTISRDNAKNTVYLQMNSLKPEDTAVYFCAVSGFDVLWPSLGGELDYWGQGTQVTVSS,low polyreactivity
20,QVQLVDSGGGLVQAGGSLRLSCAASGSTVKYAMGWYRQAPGKERELVASIRRSGGSTYYADSVKGRFTISRDNAKITVYLKMNSLNPEDTAVYYCAAPLFRWMDYWGQGTQVTVSS,high polyreactivity
21,QVQLVESGGGLVQAGGSLRLSCASSGLTFTPNAMGWYRQAPGKEREFVAAITWRGGRTYYADSVKGRFTISRDNAKNTVYFQMKSLNPEDTAVYYCAVTYRPTYQLDYWGQGTQVTVSS,high polyreactivity
22,QVQLVESGGGLVQAGGSLRLSCSASGRIFDTYAMGWYRQAPGKERELVAAIRRTGGSTYYADSVKGRFTISRDNAKNTVYLQMNSLKPEDTAVYYCAAEYTVSYLRMDYWGQGTQVTVSS,low polyreactivity
23,QVQLVESGGGLVQAGGSLRLSCAASGSIFPWYTMGWYRQAPGKEREFVAAISWSGGSTYYADSVKGRFTISRDNAKNTDYLQMNSLKPEETAVYYCAASRRPWYRAVTWNAGDYWGQGTQVTVSS,high polyreactivity
24,QVQLVESGGGLVQAGGSLRLSCAASGRTSPGYAMGWYRQAPGKEREFVAGISRGGGSTYYADSVKGRFTISRDNAKNTVYLQMNSLKPEDTEVYYCNVRGPGFYWNWGQSHYYGYDYWGQGTQVTVSS,high polyreactivity
25,QVQLVESGGGLVQAGGSLRLSCAASGSIFVGYAMGWYRQAPGKERELVAAITKRGGSTSYADSVKGRFTISRDNAKNTVYLQMNSLKPEDTAVYYCAKLYYRHLYEYDYWGQGTQVTVSS,high polyreactivity
26,QVQLVESGGGLVQAGGSLRLSCAASGSTFYFYAMGWYRPAPGKERELVAAITYSGGSTYYADSVKGRFTISRDNAKNTVYLQMNSLKPEDTAVYYCAAQWRRHSTRSRYYYWGQGSQVTVSS,high polyreactivity
27,QVQLVESGGGLDQAGGSLRLSCAASGLTFQWNAMGWYRQAPGKERELVAGITDIGDSTYYADSVKGRFTISRDNAKHTDYLQLNSLKPEDTAVYYCNATSGYKHAWRSENGYWGQGTQVTVSS,low polyreactivity
28,QVQLVESGGGLVQAGGSLRLSCAASGGIFDFYAMGWYRPAPGKERELVAAITRSGSSTFYADSVKGRFTLSRDNAKNTVDLQMNSLKPEDTAIYYCAADYSHLPIAWYYYWGQGTQVTVSS,low polyreactivity
29,QVQLVESGGGLVQAGGSLRLSCAASGRIFFHNAMGWYRQARGKERELVAAISYSGGSTYYADSVKGRFTIARDNAKNTVYLQMNSLKPEDTAVYYCNRYGNSYYFPPGPLYNYWGQGTQVTVSS,high polyreactivity
30,QVQLVESGGGLVQAGGSLRLSCAASGNTFSYYAMGWYRQAPGKERELVAAISWRGGSTYYADSVKGRFTISRDNAKNTVYLQMNSLKPEDTAVYYCAADLYWASLWYVGAAYGYEYWGQGTQVTVSS,low polyreactivity
